Test system: HEK293FT cells transfected with TF library
Assay: Screening of TF condensates based on fluorescent puncta
Assay type: cell-based
Details: Figure 1B numerical data; TF library screen, one value per transcriptional factor
How it was run: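 HEK293FT cells were reverse-transfected with Flag- or GAL4-tagged TF plasmids (1.6 μg/ml, PEI). After 60 h, cells were cultured 12 h with or without glucose, then fixed and immunostained with anti-Flag or anti-GAL4 and Alexa 488 secondaries. Fluorescent puncta were imaged over fifty random fields per well by high-content imaging.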

Molecule | Z score of condensed fraction
GLI1 (protein, UniProt P08151 1-1106, looked up) Zinc finger protein GLI1: MFNSMTPPPISSYGEPCCLRPLPSQGAPSVGTEGLSGPPFCHQANLMSGPHSYGPARETNSCTEGPLFSSPRSAVKLTKKRALSISPLSDASLDLQTVIRTSPSSLVAFINSRCTSPGGSYGHLSIGTMSPSLGFPAQMNHQKGPSPSFGVQPCGPHDSARGGMIPHPQSRGPFPTCQLKSELDMLVGKCREEPLEGDMSSPNSTGIQDPLLGMLDGREDLEREEKREPESVYETDCRWDGCSQEFDSQEQLVHHINSEHIHGERKEFVCHWGGCSRELRPFKAQYMLVVHMRRHTGEKPHKCTFEGCRKSYSRLENLKTHLRSHTGEKPYMCEHEGCSKAFSNASDRAKHQNRTHSNEKPYVCKLPGCTKRYTDPSSLRKHVKTVHGPDAHVTKRHRGDGPLPRAPSISTVEPKREREGGPIREESRLTVPEGAMKPQPSPGAQSSCSSDHSPAGSAANTDSGVEMTGNAGGSTEDLSSLDEGPCIAGTGLSTLRRLENLRLDQLHQLRPIGTRGLKLPSLSHTGTTVSRRVGPPVSLERRSSSSSSISSAYTVSRRSSLASPFPPGSPPENGASSLPGLMPAQHYLLRARYASARGGGTSPTAASSLDRIGGLPMPPWRSRAEYPGYNPNAGVTRRASDPAQAADRPAPARVQRFKSLGCVHTPPTVAGGGQNFDPYLPTSVYSPQPPSITENAAMDARGLQEEPEVGTSMVGSGLNPYMDFPPTDTLGYGGPEGAAAEPYGARGPGSLPLGPGPPTNYGPNPCPQQASYPDPTQETWGEFPSHSGLYPGPKALGGTYSQCPRLEHYGQVQVKPEQGCPVGSDSTGLAPCLNAHPSEGPPHPQPLFSHYPQPSPPQYLQSGPYTQPPPDYLPSEPRPCLDFDSPTHSTGQLKAQLVCNYVQSQQELLWEGGGREDAPAQEPSYQSPKFLGGSQVSPSRAKAPVNTYGPGFGPNLPNHKSGSYPTPSPCHENFVVGANRASHRAAAPPRLLPPLPTCYGPLKVGGTNPSCGHPEVGRLGGGPALYPPPEGQVCNPLDSLDLDNTQLDFVAILDEPQGLSPPPSHDQRGSSGHTPPPSGPPNMAVGNMSVLLRSLPGETEFLNSSA | 1.126
GATAD1 (protein, UniProt Q8WUU5 1-269, looked up) GATA zinc finger …: MPLGLKPTCSVCKTTSSSMWKKGAQGEILCHHCTGRGGAGSGGAGSGAAGGTGGSGGGGFGAATFASTSATPPQSNGGGGGKQSKQEIHRRSARLRNTKYKSAPAAEKKVSTKGKGRRHIFKLKNPIKAPESVSTIITAESIFYKGVYYQIGDVVSVIDEQDGKPYYAQIRGFIQDQYCEKSAALTWLIPTLSSPRDQFDPASYIIGPEEDLPRKMEYLEFVCHAPSEYFKSRSSPFPTVPTRPEKGYIWTHVGPTPAITIKESVANHL | -0.9628
GATA2 (protein, UniProt P23769 1-480, looked up) Endothelial transcription …: MEVAPEQPRWMAHPAVLNAQHPDSHHPGLAHNYMEPAQLLPPDEVDVFFNHLDSQGNPYYANPAHARARVSYSPAHARLTGGQMCRPHLLHSPGLPWLDGGKAALSAAAAHHHNPWTVSPFSKTPLHPSAAGGPGGPLSVYPGAGGGSGGGSGSSVASLTPTAAHSGSHLFGFPPTPPKEVSPDPSTTGAASPASSSAGGSAARGEDKDGVKYQVSLTESMKMESGSPLRPGLATMGTQPATHHPIPTYPSYVPAAAHDYSSGLFHPGGFLGGPASSFTPKQRSKARSCSEGRECVNCGATATPLWRRDGTGHYLCNACGLYHKMNGQNRPLIKPKRRLSAARRAGTCCANCQTTTTTLWRRNANGDPVCNACGLYYKLHNVNRPLTMKKEGIQTRNRKMSNKSKKSKKGAECFEELSKCMQEKSSPFSAAALAGHMAPVGHLPPFSHSGHILPTPTPIHPSSSLSFGHPHPSSMVTAMG | -0.7866
AIRE (protein, UniProt O43918 1-545, looked up) Autoimmune regulator: MATDAALRRLLRLHRTEIAVAVDSAFPLLHALADHDVVPEDKFQETLHLKEKEGCPQAFHALLSWLLTQDSTAILDFWRVLFKDYNLERYGRLQPILDSFPKDVDLSQPRKGRKPPAVPKALVPPPRLPTKRKASEEARAAAPAALTPRGTASPGSQLKAKPPKKPESSAEQQRLPLGNGIQTMSASVQRAVAMSSGDVPGARGAVEGILIQQVFESGGSKKCIQVGGEFYTPSKFEDSGSGKNKARSSSGPKPLVRAKGAQGAAPGGGEARLGQQGSVPAPLALPSDPQLHQKNEDECAVCRDGGELICCDGCPRAFHLACLSPPLREIPSGTWRCSSCLQATVQEVQPRAEEPRPQEPPVETPLPPGLRSAGEEVRGPPGEPLAGMDTTLVYKHLPAPPSAAPLPGLDSSALHPLLCVGPEGQQNLAPGARCGVCGDGTDVLRCTHCAAAFHWRCHFPAGTSRPGTGLRCRSCSGDVTPAPVEGVLAPSPARLAPGPAKDDTASHEPALHRDDLESLLSEHTFDGILQWAIQSMARPAAPFPS | 1.2609
GABPB1 (protein, UniProt Q06547 2-395, looked up) GA-binding protein subunit …: SLVDLGKKLLEAARAGQDDEVRILMANGAPFTTDWLGTSPLHLAAQYGHYSTTEVLLRAGVSRDARTKVDRTPLHMAASEGHASIVEVLLKHGADVNAKDMLKMTALHWATEHNHQEVVELLIKYGADVHTQSKFCKTAFDISIDNGNEDLAEILQIAMQNQINTNPESPDTVTIHAATPQFIIGPGGVVNLTGLVSSENSSKATDETGVSAVQFGNSSTSVLATLAALAEASAPLSNSSETPVVATEEVVTAESVDGAIQQVVSSGGQQVITIVTDGIQLGNLHSIPTSGIGQPIIVTMPDGQQVLTVPATDIAEETVISEEPPAKRQCIEIIENRVESAEIEEREALQKQLDEANREAQKYRQQLLKKEQEAEAYRQKLEAMTRLQTNKEAV | -0.05729
GLI4 (protein, UniProt P10075 1-376, looked up) Zinc finger protein GLI4: MAALGDIQESPSVPSPVSLSSPGTPGTQHHEPQLHLHGHQHGSPGSSPKVLSQPSDLDLQDVEEVEIGRDTFWPDSEPKPEQAPRSPGSQAPDEGAGGALRSLLRSLPRRARCSAGFGPESSAERPAGQPPGAVPCAQPRGAWRVTLVQQAAAGPEGAPERAAELGVNFGRSRQGSARGAKPHRCEACGKSFKYNSLLLKHQRIHTGEKPYACHECGKRFRGWSGFIQHHRIHTGEKPYECGQCGRAFSHSSHFTQHLRIHNGEKPYKCGECGQAFSQSSNLVRHQRLHTGEKPYACSQCGKAFIWSSVLIEHQRIHTGEKPYECSDCGKAFRGRSHFFRHLRTHTGEKPFACGACGKAFGQSSQLIQHQRVHYRE | 0.3449
GDNF (protein, UniProt P39905 78-211, looked up) Glial cell line-derived …: SPDKQMAVLPRRERNRQAAAANPENSRGKGRRGQRGKNRGCVLTAIHLNVTDLGLGYETKEELIFRYCSGSCDAAETTYDKILKNLSRNRRLVSDKVGQACCRPIAFDDDLSFLDDNLVYHILRKHSAKRCGCI | -0.9627
GCN512 (protein, UniProt Q92830 2-837, looked up) Histone acetyltransferase …: AEPSQAPTPAPAAQPRPLQSPAPAPTPTPAPSPASAPIPTPTPAPAPAPAAAPAGSTGTGGPGVGSGGAGSGGDPARPGLSQQQRASQRKAQVRGLPRAKKLEKLGVFSACKANETCKCNGWKNPKPPTAPRMDLQQPAANLSELCRSCEHPLADHVSHLENVSEDEINRLLGMVVDVENLFMSVHKEEDTDTKQVYFYLFKLLRKCILQMTRPVVEGSLGSPPFEKPNIEQGVLNFVQYKFSHLAPRERQTMFELSKMFLLCLNYWKLETPAQFRQRSQAEDVATYKVNYTRWLCYCHVPQSCDSLPRYETTHVFGRSLLRSIFTVTRRQLLEKFRVEKDKLVPEKRTLILTHFPKFLSMLEEEIYGANSPIWESGFTMPPSEGTQLVPRPASVSAAVVPSTPIFSPSMGGGSNSSLSLDSAGAEPMPGEKRTLPENLTLEDAKRLRVMGDIPMELVNEVMLTITDPAAMLGPETSLLSANAARDETARLEERRGIIEFHVIGNSLTPKANRRVLLWLVGLQNVFSHQLPRMPKEYIARLVFDPKHKTLALIKDGRVIGGICFRMFPTQGFTEIVFCAVTSNEQVKGYGTHLMNHLKEYHIKHNILYFLTYADEYAIGYFKKQGFSKDIKVPKSRYLGYIKDYEGATLMECELNPRIPYTELSHIIKKQKEIIKKLIERKQAQIRKVYPGLSCFKEGVRQIPVESVPGIRETGWKPLGKEKGKELKDPDQLYTTLKNLLAQIKSHPSAWPFMEPVKKSEAPDYYEVIRFPIDLKTMTERLRSRYYVTRKLFVADLQRVIANCREYNPPDSEYCRCASALEKFFYFKLKEGGLIDK | -0.5333
